Experimental findings from the RNAGym collection of RNA variant scans (doi:10.7554/elife.80360) are described below.

Sequences and labels used below:
B1: CPEB3 Ribozyme (parent)
chain: GGGGGCCACAGCAGAAGCGUUCACGUCGCGGCCCCUGUCAGAUUCUGGUGAAUCUGCGAAUUCUGCUGU

The variants in the data set derive from B1. The experiment in a line: self-cleavage, relative activity (ratio to wild type); higher = more cleavage; co-transcriptional.
On to G4U C29A, for which the self-cleavage stood at 0.0776. In the case of G4U C24A, the self-cleavage came to 0.122. On to G4U C24G, for which the self-cleavage came out at 0.0638.

Take G4U C54A: the self-cleavage came to 0.289. For the variant G4U C54U, the self-cleavage was found to be 0.709. The result for G4U C54G reads 0.21. G4C U36C: the self-cleavage was determined as 0.589. The result for G4C U36G reads 0.481; that for G4C U36A, 0.0958. As to G4C A60U, the self-cleavage came to 0.174. The result for G4U C63G reads 0.292; that for G4C G30U, 0.0789.

Take G4C G30A: the self-cleavage was 0.0414. On to G4C G56A, for which the self-cleavage was 0.289. For G4C G56C the value was 0.246. Take G4U C45U: the self-cleavage was determined as 0.743. Consider G4U C45A, for which the self-cleavage is 0.554. For G4U C45G the value was 0.587. For G4U A51G the value was 0.692; for G4U A51U, 0.772. For G4U A51C the value was 0.524; for G4C C63A, 0.217; for G4C C63U, 0.584.

G4C U53A: the self-cleavage came to 0.316.

As to G4C U53C, the self-cleavage is 0.239. The result for G4C C29G reads 0.0753. For G4C C29A the value was 0.0787. For G4U A16U the value was 0.235; for G4C G11U, 0.262. Consider G4C G11C, for which the self-cleavage came out at 0.273. For G4C G11A the value was 0.375. The result for G4C U61G reads 0.178; that for G4C U61C, 0.169. For G4C G14A the value was 0.223. In the case of G4C G14U, the self-cleavage was 0.149. The result for G4C G14C reads 0.101; that for G4U C35A, 0.114.

In the case of G4U C35G, the self-cleavage was 0.101.

For the variant G4U C35U, the self-cleavage turned out to be 0.128. Turning to G4U A23G, the self-cleavage amounted to 0.502. The result for G4C U69G reads 0.914; that for G4C U69A, 0.877; that for G4C C22A, 0.0918. For G4C G37C, the self-cleavage amounted to 0.068. For G4C G37U the value was 0.0878; for G4C G37A, 0.124; for G4C G48U, 0.755. On to G4C G48C, for which the self-cleavage was 0.675. The result for G4U C18U reads 0.257; that for G4U C18G, 0.0879; that for G4C U20A, 0.0691. For G4C U20G the value was 0.072. The result for G4C U20C reads 0.0911.

On to G4U A59U, for which the self-cleavage is 0.193. For G4U A59C the value was 0.146; for G4U C57U, 0.211; for G4U C57G, 0.165. For G4U A40U the value was 0.313. The result for G4U A40G reads 0.542; that for G4U C27U, 0.114. On to G4U C27A, for which the self-cleavage amounted to 0.11. For G4C G17C the value was 0.0898; for G4U A10U, 0.983; for G4C C45G, 0.477. In the case of G4C C45U, the self-cleavage worked out at 0.733. On to G4C C45A, for which the self-cleavage is 0.419. For G4C G19A the value was 0.0646; for G4C C27U, 0.0743. For G4U A8U the value was 0.737. The result for G4C G68U reads 0.98; that for G4C G28C, 0.0443. In the case of G4C G28U, the self-cleavage was determined as 0.109. The result for G4C G28A reads 0.0907. In the case of G4U C9A, the self-cleavage worked out at 0.982. The result for G4U C9G reads 0.974. For G4C C32U the value was 0.198; for G4C C57A, 0.136. For G4U A42G the value was 0.655; for G4U A42U, 0.526. For G4C U26G, the self-cleavage turned out to be 0.217. For G4C U26A the value was 0.125; for G4C U44G, 0.265. As for G4C U64C, the self-cleavage was determined as 0.426. As for G4C U64A, the self-cleavage is 0.457. The result for G4C U67C reads 0.824. The result for G4C U67A reads 0.902; that for G4C U67G, 0.848. Take G4C G31C: the self-cleavage was 0.105. The result for G4U A13U reads 0.383; that for G4U A13C, 0.336. The result for G4U C34A reads 0.167; that for G4U C34U, 0.361; that for G4U C34G, 0.113. For G4C U46C the value was 0.619; for G4C U21G, 0.0719. Take G4C U21C: the self-cleavage amounted to 0.215. For G4C U21A the value was 0.427. For G4C G58A the value was 0.278; for G4C G58C, 0.226. The result for G4C G58U reads 0.71; that for G4U C6A, 0.0552.

On to G4U C6G, for which the self-cleavage amounted to 0.0353. The result for G4C C54U reads 0.562; that for G4C C54A, 0.225; that for G4C C54G, 0.175. The result for G4U A60U reads 0.219. On to G4U A60C, for which the self-cleavage is 0.171.

With G4U C39A, the self-cleavage is 0.322. The result for G4C G50A reads 0.654; that for G4C G50C, 0.621.

G4C C7A: the self-cleavage was 0.0992.

G4C C7U: the self-cleavage worked out at 0.129. The result for G4U C12A reads 0.255.

As to G4U C12U, the self-cleavage amounted to 0.819. The result for G4U C12G reads 0.182. The result for G4C U62C reads 0.213; that for G4C U62G, 0.311. For G4C C35A the value was 0.0948. In the case of G4C C35G, the self-cleavage came to 0.0833.

Consider G4U C33U, for which the self-cleavage worked out at 0.975. For G4U C33A the value was 1; for G4C U43A, 0.251; for G4U C22A, 0.065. The result for G4U C22U reads 0.0611.

On to G4C G5U, for which the self-cleavage amounted to 0.0341. The result for G4C G5C reads 0.212.

Regarding G4C C34G, the self-cleavage turned out to be 0.0856. For the variant G4C C18G, the self-cleavage is 0.0437.

G4C C18U: the self-cleavage is 0.129. The result for G4C C18A reads 0.0472. The result for G4U A15U reads 0.272; that for G4C C12G, 0.148; that for G4C C12A, 0.166. For G4C C12U the value was 0.608; for G4U A52U, 0.677.

With G4U A52G, the self-cleavage was 0.722. Take G4U A52C: the self-cleavage turned out to be 0.519. For G4C G65A the value was 0.412. The result for G4C G65U reads 0.294; that for G4C G65C, 0.242; that for G4C U38A, 0.639. Consider G4C U38G, for which the self-cleavage is 0.152. For G4C C24A the value was 0.167. For G4C C24G the value was 0.117. For G4C C66U, the self-cleavage was 0.678.

On to G4C C66A, for which the self-cleavage was determined as 0.396. For the variant G4C C66G, the self-cleavage stood at 0.229. For G4C U55A the value was 0.261; for G4C U55C, 0.237. For G4C C9G the value was 0.899; for G4C C9A, 0.905; for G4C C9U, 0.937.

As for G4C G47A, the self-cleavage was 0.674. Turning to G4C G47U, the self-cleavage worked out at 0.638. With G4U C7U, the self-cleavage came to 0.233.

On to G4U C32A, for which the self-cleavage came to 0.135. For G4U C32G the value was 0.129; for G4U C32U, 0.436; for G4C G41A, 0.0714.

With G4C G41C, the self-cleavage is 0.146.

Turning to G4C C39A, the self-cleavage was 0.223. For G4C C39U the value was 0.261; for G4C C6A, 0.0438. The result for G4C C6G reads 0.0309.

With G4C G25A, the self-cleavage amounted to 0.0767. In the case of G4C G25U, the self-cleavage was 0.0499. For G4C G25C the value was 0.102.
